Assay results taken from article PMC9418451.

Columns and labels:
SecYEG = SecYEG (UniProt P0AGA2); assay: high-speed atomic force microscopy
SecYEG G297LBT = SecYEG G297LBT (UniProt P0AGA2); assay: FRET or BRET

| occupancy of SecYEG molecules by SecA (SecYEG G297LBT) [%] | Substance | Kd (SecYEG) [nM] | tau off (time constant of the periods in which SecA was bound) (SecYEG) [s] | tau on (time constant of the unbound periods until SecA rebinds) (SecYEG) [s] |
| --- | --- | --- | --- | --- |
|  | SecA (from UniProt P10408 1-901) (natural protein) | 10 | 1.1 | 1.7 |
| 10 | SecA(N95) K797C labeled with Atto488 (from UniProt P10408 1-901) (natural protein) |  |  |  |
